Laboratory results as given in patent publication US20210163604A1 (MITSUBISHI TANABE PHARMA, published 2021).

How the values were obtained:
[1] = biological target: T1, human cMET (human, UniProt P08581 25-932, limits assumed); experiment: SPR (Met Binding KD)
T1 construct: also called hMET; HGFR

[2] = biological target: T1, human cMET; experiment: ELISA on human cMET, ratio against the parental antibody
[3] = biological target: T2, rat cMET (rat, UniProt P97523 25-935, limits assumed); experiment: ELISA on rat cMET, ratio against the parental antibody
T2 construct: also called rMET
T2 sequence (P97523 25-935 limits assumed): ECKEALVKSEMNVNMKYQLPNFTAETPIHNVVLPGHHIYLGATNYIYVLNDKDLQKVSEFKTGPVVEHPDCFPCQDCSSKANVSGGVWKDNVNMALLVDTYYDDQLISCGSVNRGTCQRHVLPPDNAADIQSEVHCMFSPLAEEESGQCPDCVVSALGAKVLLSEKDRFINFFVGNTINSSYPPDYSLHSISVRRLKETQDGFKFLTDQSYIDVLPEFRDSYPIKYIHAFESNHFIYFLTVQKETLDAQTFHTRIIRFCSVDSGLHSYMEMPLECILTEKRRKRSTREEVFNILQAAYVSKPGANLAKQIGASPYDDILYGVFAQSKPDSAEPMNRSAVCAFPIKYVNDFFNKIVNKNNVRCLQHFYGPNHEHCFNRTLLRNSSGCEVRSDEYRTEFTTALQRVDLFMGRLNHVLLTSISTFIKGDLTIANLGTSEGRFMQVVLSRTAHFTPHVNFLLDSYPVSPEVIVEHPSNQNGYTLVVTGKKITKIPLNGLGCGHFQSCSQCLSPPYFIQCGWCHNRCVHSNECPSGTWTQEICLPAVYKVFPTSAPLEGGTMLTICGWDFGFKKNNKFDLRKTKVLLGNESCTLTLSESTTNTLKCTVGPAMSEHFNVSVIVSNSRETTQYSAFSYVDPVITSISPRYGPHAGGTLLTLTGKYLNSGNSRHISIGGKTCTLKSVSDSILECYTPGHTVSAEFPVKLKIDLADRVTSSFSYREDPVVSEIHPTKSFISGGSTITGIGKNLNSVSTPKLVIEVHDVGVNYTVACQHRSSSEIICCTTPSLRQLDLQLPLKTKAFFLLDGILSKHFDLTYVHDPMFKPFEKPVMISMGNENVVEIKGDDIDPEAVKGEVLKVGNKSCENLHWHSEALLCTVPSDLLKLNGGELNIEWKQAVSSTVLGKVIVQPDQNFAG

[4] = biological target: T3, monkey cMET (Macaca fascicularis, Cynomolgus Macaque) (Cynomolgus Macaque (Macaca fascicularis), UniProt A0A2K5UM36 25-932); experiment: ELISA, species cross-reactivity, antibody titrated on cynomolgus cMET; x axis printed -8 to 2 with ug/mL (log10)
T3 construct: also called Cyno cMET; NHP
T3 sequence (A0A2K5UM36 entry or part of it limits assumed): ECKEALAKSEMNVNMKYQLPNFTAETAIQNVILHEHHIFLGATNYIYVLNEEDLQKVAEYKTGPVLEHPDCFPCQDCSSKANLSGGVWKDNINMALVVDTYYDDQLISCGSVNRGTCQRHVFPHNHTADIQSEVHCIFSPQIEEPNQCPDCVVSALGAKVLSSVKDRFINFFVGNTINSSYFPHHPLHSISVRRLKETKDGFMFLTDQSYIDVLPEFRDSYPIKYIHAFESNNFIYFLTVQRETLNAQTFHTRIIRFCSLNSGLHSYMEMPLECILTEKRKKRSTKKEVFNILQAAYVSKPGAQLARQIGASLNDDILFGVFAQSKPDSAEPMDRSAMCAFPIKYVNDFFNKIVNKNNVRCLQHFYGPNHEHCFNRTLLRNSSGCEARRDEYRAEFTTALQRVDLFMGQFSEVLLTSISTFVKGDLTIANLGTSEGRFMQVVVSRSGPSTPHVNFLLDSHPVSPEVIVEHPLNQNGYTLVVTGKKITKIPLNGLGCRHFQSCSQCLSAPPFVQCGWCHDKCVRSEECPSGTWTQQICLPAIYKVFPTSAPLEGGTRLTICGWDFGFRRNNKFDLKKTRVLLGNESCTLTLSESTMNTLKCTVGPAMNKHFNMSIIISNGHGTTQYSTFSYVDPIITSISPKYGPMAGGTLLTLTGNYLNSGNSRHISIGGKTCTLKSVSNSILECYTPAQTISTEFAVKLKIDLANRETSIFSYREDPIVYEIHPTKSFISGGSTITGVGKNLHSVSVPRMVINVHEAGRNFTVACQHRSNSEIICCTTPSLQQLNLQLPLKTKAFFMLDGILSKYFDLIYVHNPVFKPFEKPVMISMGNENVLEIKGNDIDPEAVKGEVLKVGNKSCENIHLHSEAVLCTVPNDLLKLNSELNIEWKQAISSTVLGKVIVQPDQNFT

[5] = biological target: T1, human cMET; experiment: ELISA, species cross-reactivity, antibody titrated on human cMET; x axis printed -8 to 2 with ug/mL (log10)
[6] = biological target: T4, Recombinant Human c-Met-10x His (human, UniProt P08581 25-932); experiment: MET Binding ELISA on plate-bound human cMET, direct binding; the half-maximal value is printed as IC50
T4 construct: Made in-house
T4 sequence (P08581 other isoform, or with tags, fused parts or gaps limits assumed): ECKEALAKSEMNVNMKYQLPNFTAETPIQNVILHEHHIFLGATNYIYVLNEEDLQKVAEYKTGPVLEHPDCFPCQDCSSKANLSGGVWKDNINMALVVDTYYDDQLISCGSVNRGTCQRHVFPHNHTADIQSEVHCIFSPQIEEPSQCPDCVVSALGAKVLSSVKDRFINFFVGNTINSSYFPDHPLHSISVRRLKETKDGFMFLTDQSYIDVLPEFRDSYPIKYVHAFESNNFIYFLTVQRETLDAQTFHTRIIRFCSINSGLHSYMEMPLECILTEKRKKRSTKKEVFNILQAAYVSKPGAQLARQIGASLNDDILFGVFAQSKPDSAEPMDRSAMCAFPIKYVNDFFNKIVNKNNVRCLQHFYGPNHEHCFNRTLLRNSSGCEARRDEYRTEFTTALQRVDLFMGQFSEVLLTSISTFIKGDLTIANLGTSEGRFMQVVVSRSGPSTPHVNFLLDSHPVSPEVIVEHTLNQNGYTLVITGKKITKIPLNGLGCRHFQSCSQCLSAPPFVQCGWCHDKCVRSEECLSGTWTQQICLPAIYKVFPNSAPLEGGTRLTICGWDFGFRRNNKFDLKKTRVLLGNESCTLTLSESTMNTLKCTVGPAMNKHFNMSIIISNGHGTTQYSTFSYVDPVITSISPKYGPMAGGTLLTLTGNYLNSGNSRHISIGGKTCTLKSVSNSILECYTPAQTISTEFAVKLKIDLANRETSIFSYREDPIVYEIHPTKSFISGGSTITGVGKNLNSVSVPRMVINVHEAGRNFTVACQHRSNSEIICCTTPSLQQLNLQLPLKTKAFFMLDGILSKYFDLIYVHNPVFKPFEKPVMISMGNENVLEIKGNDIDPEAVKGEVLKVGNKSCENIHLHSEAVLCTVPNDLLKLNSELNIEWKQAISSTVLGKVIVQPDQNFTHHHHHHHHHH
Source text: Relative binding strength is indicated by luminescence (y-axis).

T1 sequence (P08581 25-932 limits assumed): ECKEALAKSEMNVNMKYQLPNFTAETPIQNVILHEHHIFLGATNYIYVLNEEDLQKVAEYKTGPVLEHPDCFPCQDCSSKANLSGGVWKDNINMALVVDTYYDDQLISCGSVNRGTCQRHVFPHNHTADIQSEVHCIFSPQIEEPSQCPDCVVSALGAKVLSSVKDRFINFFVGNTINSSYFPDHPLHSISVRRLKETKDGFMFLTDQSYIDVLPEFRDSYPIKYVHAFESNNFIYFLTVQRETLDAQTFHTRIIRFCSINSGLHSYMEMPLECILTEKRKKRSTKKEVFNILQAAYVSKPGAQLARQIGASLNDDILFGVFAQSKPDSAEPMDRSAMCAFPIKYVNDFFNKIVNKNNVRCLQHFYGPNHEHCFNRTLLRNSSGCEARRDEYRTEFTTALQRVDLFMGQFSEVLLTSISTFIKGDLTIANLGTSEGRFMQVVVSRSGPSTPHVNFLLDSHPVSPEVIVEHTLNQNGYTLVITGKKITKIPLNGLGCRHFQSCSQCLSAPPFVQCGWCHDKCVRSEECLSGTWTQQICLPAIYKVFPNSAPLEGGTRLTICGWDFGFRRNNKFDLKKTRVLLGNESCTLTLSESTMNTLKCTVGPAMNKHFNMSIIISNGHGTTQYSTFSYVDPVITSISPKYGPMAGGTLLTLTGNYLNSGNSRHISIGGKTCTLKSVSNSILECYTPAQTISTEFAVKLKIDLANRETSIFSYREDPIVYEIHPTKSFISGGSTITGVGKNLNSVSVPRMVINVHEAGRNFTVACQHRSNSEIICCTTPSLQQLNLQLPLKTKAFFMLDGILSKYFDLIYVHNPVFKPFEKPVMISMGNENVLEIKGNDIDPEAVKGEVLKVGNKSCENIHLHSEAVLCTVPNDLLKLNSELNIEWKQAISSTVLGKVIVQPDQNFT

| Molecule | ELISA hMET vs parental [2] | ELISA rMET vs parental [3] | further results |
| --- | --- | --- | --- |
| 5D5 (agonist Met-mAb antibody, agonist positive control) |  |  | Kd [1]: 0.85 nM |
| humanized P3D12 antibody, HC SEQ ID NO: 108 (P3D12 VH-cdr) / LC SEQ ID NO: 49 (P3D12 VL-cdr) (antibody, V domains shown) VH: QVQLVQSGAEVKKPGASVKVSCKASGYTFTSYWMHWVKQAPGQGLDWIGYIKPSTDNTEYNQKFKDKATLTADKSTSTAYMELSSLRSEDTAVYYCARSYGNYPLMDYWGQGTTVTVSS VL: QIVLTQSPATLSLSPGERATLSCSASSSVTSNYLYWYQQKPGSSPRLLIYSTSNLASGVPARFSGSGSGTSYTLTISRLEPEDFASYFCHQWSSYPPTFGSGTKLEIKR | 1 | 2 |  |
| humanized P3D12 antibody, HC SEQ ID NO: 105 (P3D12 VH-fra) / LC SEQ ID NO: 49 (P3D12 VL-cdr) (antibody, V domains shown) VH: QVQLQQSGAEVKKPGASVKVSCKASGYTFTSYWMHWVKQRPGQGLDWIGYIKPSTDNTEYNQKFKDRVTLTADKSTSTAYMQLSNLISEDTAVYYCARSYGNYPLMDYWGQGTSVTVSS VL: QIVLTQSPATLSLSPGERATLSCSASSSVTSNYLYWYQQKPGSSPRLLIYSTSNLASGVPARFSGSGSGTSYTLTISRLEPEDFASYFCHQWSSYPPTFGSGTKLEIKR | 1.7 | 2.3 |  |
| humanized P3D12 antibody, HC SEQ ID NO: 105 (P3D12 VH-fra) / LC SEQ ID NO: 48 (P3D12 VL-abb/sdr) (antibody, V domains shown) VH: QVQLQQSGAEVKKPGASVKVSCKASGYTFTSYWMHWVKQRPGQGLDWIGYIKPSTDNTEYNQKFKDRVTLTADKSTSTAYMQLSNLISEDTAVYYCARSYGNYPLMDYWGQGTSVTVSS VL: QIVLTQSPATLSLSPGERATLSCRASQSVTSNYLYWYQQKPGSSPRLLIYSTSNLASGVPARFSGSGSGTDYTLTISRLEPEDFASYFCHQWSSYPPTFGSGTKLEIKR | 1.8 | 3.8 |  |
| humanized P3D12 antibody, HC SEQ ID NO: 108 (P3D12 VH-cdr) / LC SEQ ID NO: 46 (P3D12 VL-ven) (antibody, V domains shown) VH: QVQLVQSGAEVKKPGASVKVSCKASGYTFTSYWMHWVKQAPGQGLDWIGYIKPSTDNTEYNQKFKDKATLTADKSTSTAYMELSSLRSEDTAVYYCARSYGNYPLMDYWGQGTTVTVSS VL: QIVLTQSPATMSASPGERVTLSCSASSSVTSNYLYWYQQKPGSSPRLWIYSTSNLASGVPARFSGSGSGTSYTLTISRMEPEDAASYFCHQWSSYPPTFGSGTKLEIKR | 1.1 | 1 |  |
| F6B1P3D12 mouse monoclonal anti-cMET antibody (antibody, V domains shown, Mouse hybridoma antibody) VH: QVQLQQSGAELAKPGASVKMSCRASGYTFTSYWMHWVKQRPGQGLDWIGYIKPSTDNTEYNQKFKDKATLTADKSSSTAYMQLSSLTSEDSAVYYCARSYGNYPLMDYWGQGTSVTVSS VL: QIVLTQSPAIMSASPGEKVTLTCSASSSVTSNYLYWYQQKPGSSPKLWIYSTSNLASGVPARFSGSGSGTSYSLTISSMEAEDAASYFCHQWSSYPPTFGSGTKLEIKR |  |  | EC50 (read off the curve) [4]: ~0.2 µg/mL; EC50 (read off the curve) [5]: ~0.2 µg/mL |
| hD12-VII (antibody hD12 attached to the payload of chemical formula VII, stochastic conjugation) (antibody, human IgG2, kappa, V domains shown, payload possibly on cysteines (random positions); payload of chemical formula VII linked through maleimide to cysteine thiols at random positions, Antibody-drug conjugate; also called hD12-vc-VII) VH: QVQLVQSGAEVKKPGASVKVSCKASGYTFTSYWMHWVKQAPGQGLDWIGYIKPSTDNTEYNQKFKDKATLTADKSTSTAYMELSSLRSEDTAVYYCARSYGNYPLMDYWGQGTTVTVSS VL: QIVLTQSPAILSLSPGERATLSCSASSSVTSNYLYWYQQKPGSSPKLLIYSTSNLASGVPARFSGSGSGTSYTLTISSLEAEDAASYFCHQWSSYPPTFGSGTKLEIKR |  |  | IC50 [6]: 0.042 µg/mL |
| humanized P3D12 antibody, HC SEQ ID NO: 108 (P3D12 VH-cdr) / LC SEQ ID NO: 47 (P3D12 VL-fra) (antibody, V domains shown) VH: QVQLVQSGAEVKKPGASVKVSCKASGYTFTSYWMHWVKQAPGQGLDWIGYIKPSTDNTEYNQKFKDKATLTADKSTSTAYMELSSLRSEDTAVYYCARSYGNYPLMDYWGQGTTVTVSS VL: QIVLTQSPAILSLSPGERATLSCSASSSVTSNYLYWYQQKPGSSPKLLIYSTSNLASGVPARFSGSGSGTSYTLTISSLEAEDAASYFCHQWSSYPPTFGSGTKLEIKR | 0.7 | 0.9 |  |
| F6B1P1E2 mouse monoclonal anti-cMET antibody (antibody, V domains shown, Mouse hybridoma antibody) VH: QVQLQQSGAELAKPGASVKMSCKASGYTFTSYWMHWVKQRPGQGLEWIGYINPSTDYTEYNQKFKDKATLTADKSSTTAYMQLSSLTSEDSAVYYCVRSYGNYPLMDYWGQGTSVTVSS VL: QIVLTQSPAIMSASPGEKVTLTCSASSSVSSNYLYWYHQKPGSSPKLWIYSTSNLASGVPVRFSGSGSGTSYSLTISSMEAEDAASYFCHQWSSYPPTFGSGTKLEIKR |  |  | EC50 (read off the curve) [4]: ~0.2 µg/mL; EC50 (read off the curve) [5]: ~0.2 µg/mL |
| hD12-VI (antibody hD12 attached to the payload of chemical formula VI, stochastic conjugation) (antibody, human IgG2, kappa, V domains shown, payload possibly on cysteines (random positions); payload of chemical formula VI linked through maleimide to cysteine thiols at random positions, Antibody-drug conjugate; also called hD12-vc-VI) VH: QVQLVQSGAEVKKPGASVKVSCKASGYTFTSYWMHWVKQAPGQGLDWIGYIKPSTDNTEYNQKFKDKATLTADKSTSTAYMELSSLRSEDTAVYYCARSYGNYPLMDYWGQGTTVTVSS VL: QIVLTQSPAILSLSPGERATLSCSASSSVTSNYLYWYQQKPGSSPKLLIYSTSNLASGVPARFSGSGSGTSYTLTISSLEAEDAASYFCHQWSSYPPTFGSGTKLEIKR |  |  | IC50 [6]: 0.036 µg/mL |
| hD12-II (antibody hD12 attached to the payload of chemical formula II, stochastic conjugation) (antibody, human IgG2, kappa, V domains shown, payload possibly on cysteines (random positions); payload of chemical formula II (pyrrolobenzodiazepine toxin and linking group) linked through maleimide to cysteine thiols at random positions, also called hD12-vc-II) VH: QVQLVQSGAEVKKPGASVKVSCKASGYTFTSYWMHWVKQAPGQGLDWIGYIKPSTDNTEYNQKFKDKATLTADKSTSTAYMELSSLRSEDTAVYYCARSYGNYPLMDYWGQGTTVTVSS VL: QIVLTQSPAILSLSPGERATLSCSASSSVTSNYLYWYQQKPGSSPKLLIYSTSNLASGVPARFSGSGSGTSYTLTISSLEAEDAASYFCHQWSSYPPTFGSGTKLEIKR |  |  | IC50 [6]: 0.052 µg/mL |
| hD12-XI (antibody hD12 attached to the payload of chemical formula XI, stochastic conjugation) (antibody, human IgG2, kappa, V domains shown, payload possibly on cysteines (random positions); payload of chemical formula XI linked through maleimide to cysteine thiols at random positions, Antibody-drug conjugate; also called hD12-vc-XI) VH: QVQLVQSGAEVKKPGASVKVSCKASGYTFTSYWMHWVKQAPGQGLDWIGYIKPSTDNTEYNQKFKDKATLTADKSTSTAYMELSSLRSEDTAVYYCARSYGNYPLMDYWGQGTTVTVSS VL: QIVLTQSPAILSLSPGERATLSCSASSSVTSNYLYWYQQKPGSSPKLLIYSTSNLASGVPARFSGSGSGTSYTLTISSLEAEDAASYFCHQWSSYPPTFGSGTKLEIKR |  |  | IC50 [6]: 0.103 µg/mL |
| hD12-IV (antibody hD12 attached to the payload of chemical formula IV, stochastic conjugation) (antibody, human IgG2, kappa, V domains shown, payload possibly on cysteines (random positions); payload of chemical formula IV linked through maleimide to cysteine thiols at random positions, Antibody-drug conjugate; also called hD12-vc-IV) VH: QVQLVQSGAEVKKPGASVKVSCKASGYTFTSYWMHWVKQAPGQGLDWIGYIKPSTDNTEYNQKFKDKATLTADKSTSTAYMELSSLRSEDTAVYYCARSYGNYPLMDYWGQGTTVTVSS VL: QIVLTQSPAILSLSPGERATLSCSASSSVTSNYLYWYQQKPGSSPKLLIYSTSNLASGVPARFSGSGSGTSYTLTISSLEAEDAASYFCHQWSSYPPTFGSGTKLEIKR |  |  | IC50 [6]: 0.058 µg/mL |
| F6BP2D4 mouse monoclonal anti-cMET antibody (antibody, V domains shown, Mouse hybridoma antibody) VH: QVQLQQSGAELAKPGASVKMSCKASGYTFTSYWMHWVKQRPGQGLEWIGYINPSTDYIEYNQKFKDKATLTAGKSSSTAYMQLSSLTSEDSAVYYCARSYGNFPLMDYWGQGTSVTVSS VL: QIVLTQSPAIMSASPGEKVTLTCSASSSVSSNYLYWYQQKPGSSPKLWIYSTSNLASGVPVRFSGSGSGTSYSLTISSMEAEDAASYFCHQWSSYPPTFGSGTKLEIKR |  |  | EC50 (read off the curve) [4]: ~0.2 µg/mL; EC50 (read off the curve) [5]: ~0.2 µg/mL |
| humanized P3D12 antibody, HC SEQ ID NO: 105 (P3D12 VH-fra) / LC SEQ ID NO: 46 (P3D12 VL-ven) (antibody, V domains shown) VH: QVQLQQSGAEVKKPGASVKVSCKASGYTFTSYWMHWVKQRPGQGLDWIGYIKPSTDNTEYNQKFKDRVTLTADKSTSTAYMQLSNLISEDTAVYYCARSYGNYPLMDYWGQGTSVTVSS VL: QIVLTQSPATMSASPGERVTLSCSASSSVTSNYLYWYQQKPGSSPRLWIYSTSNLASGVPARFSGSGSGTSYTLTISRMEPEDAASYFCHQWSSYPPTFGSGTKLEIKR | 1.7 | 1.2 |  |
| humanized P3D12 antibody, HC SEQ ID NO: 107 (P3D12 VH-abb/sdr) / LC SEQ ID NO: 47 (P3D12 VL-fra) (antibody, V domains shown) VH: QVQLVQSGAEVKKPGASVKVSCKASGYTFTSYWMHWVKQAPGQGLDWMGYIKPSTDNTEYAQKFQGRVTLTADKSTSTAYMELSSLRSEDTAVYYCARSYGNYPLMDYWGQGTTVTVSS VL: QIVLTQSPAILSLSPGERATLSCSASSSVTSNYLYWYQQKPGSSPKLLIYSTSNLASGVPARFSGSGSGTSYTLTISSLEAEDAASYFCHQWSSYPPTFGSGTKLEIKR | 1 | 0.5 |  |
| humanized P3D12 antibody, HC SEQ ID NO: 105 (P3D12 VH-fra) / LC SEQ ID NO: 47 (P3D12 VL-fra) (antibody, V domains shown) VH: QVQLQQSGAEVKKPGASVKVSCKASGYTFTSYWMHWVKQRPGQGLDWIGYIKPSTDNTEYNQKFKDRVTLTADKSTSTAYMQLSNLISEDTAVYYCARSYGNYPLMDYWGQGTSVTVSS VL: QIVLTQSPAILSLSPGERATLSCSASSSVTSNYLYWYQQKPGSSPKLLIYSTSNLASGVPARFSGSGSGTSYTLTISSLEAEDAASYFCHQWSSYPPTFGSGTKLEIKR | 1.7 | 1.4 |  |
| humanized P3D12 antibody, HC SEQ ID NO: 108 (P3D12 VH-cdr) / LC SEQ ID NO: 48 (P3D12 VL-abb/sdr) (antibody, V domains shown) VH: QVQLVQSGAEVKKPGASVKVSCKASGYTFTSYWMHWVKQAPGQGLDWIGYIKPSTDNTEYNQKFKDKATLTADKSTSTAYMELSSLRSEDTAVYYCARSYGNYPLMDYWGQGTTVTVSS VL: QIVLTQSPATLSLSPGERATLSCRASQSVTSNYLYWYQQKPGSSPRLLIYSTSNLASGVPARFSGSGSGTDYTLTISRLEPEDFASYFCHQWSSYPPTFGSGTKLEIKR | 1.3 | 2.7 |  |
| F6AP8E2 mouse monoclonal anti-cMET antibody (antibody, V domains shown, Mouse hybridoma antibody) VH: EVQLQQSGAELVRPGALVKLSCKASGFNINDYFMHWVKQRPEQGLEWIGWIDPENGNTIYDPKFQGKASITADTSSNTAYLQLSSLTSEDTAVYYCARGGNYLRESYYYAMDYWGQGTSVTVSS VL: DIVMTQSPKSMSMSVGERVTLSCKASENVGTYVSWYQQKPDQSPKLLIYGASNRYTGVPDRFTGSGSATDFTLTISSVQAEDLADYHCGQSYSYPLTFGAGTKLELKR |  |  | EC50 (read off the curve) [4]: ~0.2 µg/mL; EC50 (read off the curve) [5]: ~0.2 µg/mL; Kd [1]: 0.18 nM |
